This passage reports depth of the minimum of the nucleosome pair potential results from article PMC5262459.

The assay addresses nucleosome with full-length recombinant Xenopus laevis histones acetylated by the lysine acetyltrans (X. laevis) (UniProt P62799). The assay is described as follows: single-particle negative-staining TEM in a DNA origami force spectrometer.

Regarding “nucleosome with full-length recombinant Xenopus laevis histones acetylated by the lysine acetyltrans (from UniProt P62799 1-103) (complex)”, the depth of the minimum of the nucleosome pair potential was -0.6 kcal/mol.
